± gives the standard deviation.
Assay: protein stability index of a GFP-peptide fusion (GPS, HEK-293T) (PSI 1-6); higher = more stable
Details: c terminus: a fixed tail appended
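Note: 24-mer peptide tiles fused after GFP, lentivirally expressed, FACS-sorted into six equal bins by GFP/DsRed ratio, decoded by Illumina sequencing, PSI is the read-weighted mean bin number.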

QNIQSWSNHSWNTQTWCTQSWNNQ [NANOGP8]
protein stability index (treatment: DMSO): 2.53 ± 0.37 | protein stability index (treatment: MLN4924 1 uM, 8 h): 2.61 ± 0.24

LASYPLALVRTRMQAQASIEGAPE [SLC25A25]
protein stability index (treatment: DMSO): 4.03 ± 0.19 | protein stability index (treatment: MLN4924 1 uM, 8 h): 4.18 ± 0.43

RCLVRCLLRREPAERLTATGILLH [TRIB3]
protein stability index (treatment: DMSO): 2.38 ± 0.43 | protein stability index (treatment: MLN4924 1 uM, 8 h): 2.44 ± 0.26

AQALRQELERQRRLLGSVQQDLER [PBXIP1]
protein stability index (treatment: DMSO): 4.08 ± 0.091 | protein stability index (treatment: MLN4924 1 uM, 8 h): 4.23 ± 0.12

QLLLIKALQEKLWNVAAPLYLKQS [INTS4]
protein stability index (treatment: DMSO): 3.14 ± 0.31 | protein stability index (treatment: MLN4924 1 uM, 8 h): 2.89 ± 0.18

FQFTDWPEQGVPKSGEGFIDFIGQ [PTPRD]
protein stability index (treatment: DMSO): 2.68 ± 0.22 | protein stability index (treatment: MLN4924 1 uM, 8 h): 2.84 ± 0.31

MSADPHLASSLSPSQDERMRSPQN [NOL4L]
protein stability index (treatment: DMSO): 5.17 ± 0.25 | protein stability index (treatment: MLN4924 1 uM, 8 h): 5.15 ± 0.24

APRFNQQLYTAYILENRPPGSLLC [PCDHGC5]
protein stability index (treatment: DMSO): 2.1 ± 0.2 | protein stability index (treatment: MLN4924 1 uM, 8 h): 2.07 ± 0.28

TPLHVAAANKAVKCAEVIIPLLSS [ANKRD44]
protein stability index (treatment: DMSO): 2.44 ± 0.26 | protein stability index (treatment: MLN4924 1 uM, 8 h): 2.54 ± 0.22

EICSEPVAASPAPAGERRIYRHRI [ZNF511]
protein stability index (treatment: DMSO): 4.27 ± 0.47 | protein stability index (treatment: MLN4924 1 uM, 8 h): 4.09 ± 0.26

SWSIQMRQHHHQSSFPGSLPQETN
protein stability index (treatment: DMSO): 3.51 ± 0.1 | protein stability index (treatment: MLN4924 1 uM, 8 h): 3.53 ± 0.11

ISHRSTVASCMHRQETVDCLKKFN [CAMK2A]
protein stability index (treatment: DMSO): 3.23 ± 0.077 | protein stability index (treatment: MLN4924 1 uM, 8 h): 3.14 ± 0.11

FIICIVIAILLYKSKPDRKRAESD [PTPRD]
protein stability index (treatment: DMSO): 2.96 ± 0.72 | protein stability index (treatment: MLN4924 1 uM, 8 h): 2.97 ± 0.043

LANSWNCLPKHLLHSVNQRFGSNN [KLHDC2]
protein stability index (treatment: DMSO): 2.43 ± 0.33 | protein stability index (treatment: MLN4924 1 uM, 8 h): 2.3 ± 0.23

WMMQNLLLEEGGLVQVESVNLQVA [UFD1]
protein stability index (treatment: DMSO): 2.1 ± 0.29 | protein stability index (treatment: MLN4924 1 uM, 8 h): 2.33 ± 0.59

SLFCLEDKELLCCSCQADPRHQGH [TRIM35]
protein stability index (treatment: DMSO): 3.06 ± 0.16 | protein stability index (treatment: MLN4924 1 uM, 8 h): 3.35 ± 0.4

IRKLVAEKLNIPWNHIRLQRTAKG [AASDHPPT]
protein stability index (treatment: DMSO): 2.31 ± 0.27 | protein stability index (treatment: MLN4924 1 uM, 8 h): 2.44 ± 0.33

LSVLPQLEFKLKSNDNEERLQVVK [PDS5B]
protein stability index (treatment: DMSO): 3.77 ± 0.11 | protein stability index (treatment: MLN4924 1 uM, 8 h): 3.7 ± 0.25

RKRAVPCGACLTQLFFFHLFVGVD [OR3A1]
protein stability index (treatment: DMSO): 2.82 ± 0.3 | protein stability index (treatment: MLN4924 1 uM, 8 h): 2.74 ± 0.45

LLEDPLCADVILVLQERVRIFAHK [RHOBTB2]
protein stability index (treatment: DMSO): 2.21 ± 0.21 | protein stability index (treatment: MLN4924 1 uM, 8 h): 2.5 ± 0.25

LSGVDLELVGSGYRMSLVKRRFAT [FCHO1]
protein stability index (treatment: DMSO): 2.33 ± 0.2 | protein stability index (treatment: MLN4924 1 uM, 8 h): 2.37 ± 0.18

PLVGQDEFFLEQTKKKGVKRPARL [NOP53]
protein stability index (treatment: DMSO): 4.18 ± 0.41 | protein stability index (treatment: MLN4924 1 uM, 8 h): 4.2 ± 0.19

TKFDRDGNRILDEKEQEKMRQDLE [PKD2L1]
protein stability index (treatment: DMSO): 5.12 ± 0.34 | protein stability index (treatment: MLN4924 1 uM, 8 h): 5.36 ± 0.35

SEDMWGDEDFTFGAYQPTVVSSEG [FBF1]
protein stability index (treatment: DMSO): 4.53 ± 0.23 | protein stability index (treatment: MLN4924 1 uM, 8 h): 4.84 ± 0.23

GNPFLDVPQALSATTYKHGVLTRK [PSD2]
protein stability index (treatment: DMSO): 4.08 ± 0.3 | protein stability index (treatment: MLN4924 1 uM, 8 h): 4.18 ± 0.4

IRERATIEETYSKAMAKLSKLASN [FCHO1]
protein stability index (treatment: DMSO): 3.02 ± 0.19 | protein stability index (treatment: MLN4924 1 uM, 8 h): 2.91 ± 0.3

PFKRFLRKKSKPKKCVKKFVEYCD [SMOC2]
protein stability index (treatment: DMSO): 2.45 ± 0.091 | protein stability index (treatment: MLN4924 1 uM, 8 h): 2.59 ± 0.26

KGFSHLDVMLVECYDPKGDQWNIL [KLHL14]
protein stability index (treatment: DMSO): 2.82 ± 0.6 | protein stability index (treatment: MLN4924 1 uM, 8 h): 2.9 ± 0.68

VALLNKTNVKFLAITTDCLQILAY [CTNNB1]
protein stability index (treatment: DMSO): 2.86 ± 0.51 | protein stability index (treatment: MLN4924 1 uM, 8 h): 2.91 ± 0.42

RPGGGRVKIESVKLDFKEKAQAKV [MAP2]
protein stability index (treatment: DMSO): 4.06 ± 0.3 | protein stability index (treatment: MLN4924 1 uM, 8 h): 4.01 ± 0.25

TINIKCHVHDPHGQVIWGMSWAKL [FBXO39]
protein stability index (treatment: DMSO): 2.84 ± 0.5 | protein stability index (treatment: MLN4924 1 uM, 8 h): 2.67 ± 0.46

WAQYRQGEARFLPKDLDPSLCTHL [CHIT1]
protein stability index (treatment: DMSO): 2.65 ± 0.31 | protein stability index (treatment: MLN4924 1 uM, 8 h): 2.78 ± 0.39

VLEVRTENLKQQRSRREQFSRAPV [STX5]
protein stability index (treatment: DMSO): 3.4 ± 0.45 | protein stability index (treatment: MLN4924 1 uM, 8 h): 3.63 ± 0.41

WEALNMMGLYDGMEHLIYGEPRKL [MAGEA10]
protein stability index (treatment: DMSO): 2.22 ± 0.59 | protein stability index (treatment: MLN4924 1 uM, 8 h): 2.45 ± 0.34

SYVCRCKQGYILNSDQTTCRIQDL [MATN2]
protein stability index (treatment: DMSO): 2.4 ± 0.31 | protein stability index (treatment: MLN4924 1 uM, 8 h): 2.46 ± 0.42

MAESLRSPRRSLYKLVGSPPWKEA [RPAIN]
protein stability index (treatment: DMSO): 2.73 ± 0.48 | protein stability index (treatment: MLN4924 1 uM, 8 h): 2.77 ± 0.53

DRGTRVVFIDFSVYNANINLFCVL [PKD2L1]
protein stability index (treatment: DMSO): 3.11 ± 0.08 | protein stability index (treatment: MLN4924 1 uM, 8 h): 2.95 ± 0.31

ILENRPPGSLLCTVAASDPDTGDN [PCDHGC5]
protein stability index (treatment: DMSO): 4.99 ± 0.12 | protein stability index (treatment: MLN4924 1 uM, 8 h): 5.06 ± 0.13

SDDLERTIEERVNILFDFVKKKKE [EIF5]
protein stability index (treatment: DMSO): 3.97 ± 0.19 | protein stability index (treatment: MLN4924 1 uM, 8 h): 4.2 ± 0.32

VHYLHSKRIAHFDLKPENIMLLDK [DAPK3]
protein stability index (treatment: DMSO): 2.33 ± 0.34 | protein stability index (treatment: MLN4924 1 uM, 8 h): 2.17 ± 0.28

FRDATSAPLRKLSVDLIKTYKHIN [DYRK1B]
protein stability index (treatment: DMSO): 3.36 ± 0.17 | protein stability index (treatment: MLN4924 1 uM, 8 h): 3.39 ± 0.27

RSETFLEVWGNALLRPPVAAFVRA [DNAAF3]
protein stability index (treatment: DMSO): 2.22 ± 0.21 | protein stability index (treatment: MLN4924 1 uM, 8 h): 2.34 ± 0.13

EEKKAKVAPPAKQAQQKKAPAKKA [BRD3]
protein stability index (treatment: DMSO): 5.45 ± 0.29 | protein stability index (treatment: MLN4924 1 uM, 8 h): 5.49 ± 0.17

AEVAPEERENVAVAKLQESQPGNA [SDE2]
protein stability index (treatment: DMSO): 5.49 ± 0.18 | protein stability index (treatment: MLN4924 1 uM, 8 h): 5.718 ± 0.056

RSTCNVVQDEFLDTPCTNRGLPLL [DLC1]
protein stability index (treatment: DMSO): 3.21 ± 0.27 | protein stability index (treatment: MLN4924 1 uM, 8 h): 3.21 ± 0.42

SALFAGNEWRRPIIQFVESGDDKN [TRIM29]
protein stability index (treatment: DMSO): 4.37 ± 0.23 | protein stability index (treatment: MLN4924 1 uM, 8 h): 4.13 ± 0.25

EDFIFSHFFGDKALKKRSGKKDKH [PBXIP1]
protein stability index (treatment: DMSO): 3.82 ± 0.079 | protein stability index (treatment: MLN4924 1 uM, 8 h): 4.13 ± 0.16

IERLTREVEATRRALIDRMVNLHQ [DDIT3]
protein stability index (treatment: DMSO): 2.45 ± 0.18 | protein stability index (treatment: MLN4924 1 uM, 8 h): 2.61 ± 0.24

AALIEAIQDRLSNTLQTYIRCRHP [VDR]
protein stability index (treatment: DMSO): 2.49 ± 0.5 | protein stability index (treatment: MLN4924 1 uM, 8 h): 2.54 ± 0.32

EMDKLRASDIMEPNLTYVYPHTRI [CLCN6]
protein stability index (treatment: DMSO): 2.58 ± 0.23 | protein stability index (treatment: MLN4924 1 uM, 8 h): 2.92 ± 0.31

RSFKEELLCAVCYDPFRDAVTLRC [TRIM35]
protein stability index (treatment: DMSO): 2.58 ± 0.63 | protein stability index (treatment: MLN4924 1 uM, 8 h): 2.61 ± 0.61

ERLAKNLVEKGVLTTEKQNFLLFD [GOLPH3]
protein stability index (treatment: DMSO): 3.16 ± 0.52 | protein stability index (treatment: MLN4924 1 uM, 8 h): 3.43 ± 0.34

EEAISVVMSGKMSVSKAQSIYGIP [LCOR]
protein stability index (treatment: DMSO): 2.69 ± 0.17 | protein stability index (treatment: MLN4924 1 uM, 8 h): 2.53 ± 0.087

ESSVPSTVGCSSQHTPDQANSDRA [PLEKHN1]
protein stability index (treatment: DMSO): 5.42 ± 0.2 | protein stability index (treatment: MLN4924 1 uM, 8 h): 5.61 ± 0.16

VCVDRVLYLFGGHHSRGNTNKFYM [KLHDC2]
protein stability index (treatment: DMSO): 2.37 ± 1.4 | protein stability index (treatment: MLN4924 1 uM, 8 h): 2.86 ± 1.1

DANLLNDRVLRAMLKAEETCAPSV [CCND1]
protein stability index (treatment: DMSO): 3.33 ± 0.34 | protein stability index (treatment: MLN4924 1 uM, 8 h): 3.61 ± 0.23

FNPEVAKYLKVPQDPLKFYKKIYF [IQUB]
protein stability index (treatment: DMSO): 2.12 ± 0.36 | protein stability index (treatment: MLN4924 1 uM, 8 h): 2.24 ± 0.043

TVDSMIPAYATTRIRSQIGNTESE [GDAP1]
protein stability index (treatment: DMSO): 4.86 ± 0.16 | protein stability index (treatment: MLN4924 1 uM, 8 h): 4.99 ± 0.076

SYSPASASSGGAGAAVGTGSSYPT [JUNB]
protein stability index (treatment: DMSO): 4.41 ± 0.27 | protein stability index (treatment: MLN4924 1 uM, 8 h): 4.61 ± 0.094

QVSQVKGAARLALLQGAGLDVERW [FCHSD1]
protein stability index (treatment: DMSO): 2.89 ± 0.32 | protein stability index (treatment: MLN4924 1 uM, 8 h): 3.16 ± 0.49

NAGLVWFFPWREAKPGSTEKGLPL [MFSD9]
protein stability index (treatment: DMSO): 2.23 ± 0.18 | protein stability index (treatment: MLN4924 1 uM, 8 h): 2.16 ± 0.29

ERHCHLYTFHARFGEVRPYFYLGG [TRIM35]
protein stability index (treatment: DMSO): 2.61 ± 0.49 | protein stability index (treatment: MLN4924 1 uM, 8 h): 2.6 ± 0.52

PLAEQTPLTLQSQPKEPQLTCDSA [ZSCAN9]
protein stability index (treatment: DMSO): 5.25 ± 0.28 | protein stability index (treatment: MLN4924 1 uM, 8 h): 5.35 ± 0.36

NGSVGVKNSMENGRPPDPADWAVM [SAMD13]
protein stability index (treatment: DMSO): 3.99 ± 0.26 | protein stability index (treatment: MLN4924 1 uM, 8 h): 4.06 ± 0.24

VLDVNNQSFREQEEPSNKRVRPLA [NET1]
protein stability index (treatment: DMSO): 3.46 ± 0.2 | protein stability index (treatment: MLN4924 1 uM, 8 h): 3.99 ± 0.28

Reference: the supplement of paper PMC10567573
